The values that follow come from patent publication US7968091 (GENERAL HOSPITAL, dated 2011).

This assay deals with T1, human BMP-2 ligand (carrier-free, R & D Systems), used 125I-labeled and as cold competitor (human, UniProt P12643 283-396, iodinated with [125I] by the modified chloramine-T method (labeled form)).
T1 construct: Bought recombinant ligand
In words: DSS chemical crosslinking with 125I-BMP-2, Protein A pull-down, SDS-PAGE, autoradiography. The method, then:
Ligand iodination and crosslinking. […] This mixture was incubated in the absence or presence of […] disuccinimidyl suberate (DSS, Sigma, St. Louis, Mo.) followed by incubated with Protein A Sepharose beads (Amersham) as previously described (J. L. Babitt et al., J. Biol. Chem., 2005, 280: 29820-29827). Beads were washed with phosphate buffered saline (PBS) and protein eluted by non-reducing Laemmli sample buffer (Bio-Rad). Eluted protein was separated by SDS-PAGE and analyzed by autoradiography.

T1 sequence (P12643 283-396 limits assumed): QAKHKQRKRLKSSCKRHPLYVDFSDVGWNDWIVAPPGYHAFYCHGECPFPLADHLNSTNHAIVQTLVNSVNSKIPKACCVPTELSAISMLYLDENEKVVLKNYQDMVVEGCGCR

B1: ALK5.Fc (a TGF-β type I receptor, R & D Systems) (Fc fusion, UniProt P36897 34-125, looked up)
chain: LQCFCHLCTKDNFTCVTDGLCFVSVTETTDKVIHNSMCIAEIDLIPRDRPFVCAPSSKTGSVTTTYCCNQDHCNKIELPTTVKSSPGLGPVE
notes: Bought fusion protein, negative control; not shown: Fc part of the bought fusion protein; not described
On to B1, for which the binding result is recorded as “no binding (tested: 60 ng ALK5.Fc)”.
